How the values were obtained:
[1] = target: T1, Ac-YVAD-AMC (model substrate, from Enzo, Inc.)
T1 chain: YVAD

[2] = target: alpha-synuclein (wild-type, full-length human α-synuclein)

B1: caspase-1 (ICE), purified, activated (protein)
chain: NPAMPTSSGSEGNVKLCSLEEAQRIWKQKSAEIYPIMDKSSRTRLALIICNEEFDSIPRRTGAEVDITGMTMLLQNLGYSVDVKKNLTASDMTTELEAFAHRPEHKTSDSTFLVFMSHGIREGICGKKHSEQVPDILQLNAIFNMLNTKNCPSLKDKPKVIIIQACRGDSPGVVWFKDSVGVSGNLSLPTTEEFEDDAIKKAHIEKDFIAFCSSTPDNVSWRHPTMGSVFIGRLIEHMQEYACSCDVEEIFRKVRFSFEQPDGRAQMPTTERVTLTRCFYLFPGH
[1]
  activity against a model substrate: 110 µM/min/mg
[2]
  cleavage of alpha-synuclein in vitro (SDS-PAGE and western blotting with anti-synuclein antibody): Purified, activated caspase-1 does indeed cleave alpha-synuclein
